Measured values as given in the nanobody polyreactivity screen of Harvey et al. (2022).

Test: yeast display, Sf9 membrane polyspecificity reagent, FACS + sequencing; frameworks hold sequencing errors
Outline: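 Using colony PCR, genes from sorted yeast display clones were amplified, then sequenced on MiSeq at 2 × 250 and filtered by CDR length. The clones had been stained with 10% biotinylated, detergent-solubilized Sf9 membrane reagent for 1 hour at 4 °C and sorted by FACS into low and high (top ~1%) gates on anti-HA and streptavidin fluorescence. Polyreactivity labels come from the gate of origin.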

Row | Sequence | polyreactivity (PSR sort gate)
1 | QVQLVESGGGLVQAGGSLRLSCAASGSIFLIYAMGWYRQAPGKERELVAAISSGGSTYYADSVKGRFTISRDNAKNTVYLQMNSLKPEDTAVYYCATYSTSVAFHLYYWGQGTQVTVSS | low polyreactivity
2 | QVQLVESGGGLVQAGGSLRLSCAASGSIFLIYAMGWYRQGPGKERELVAGINWSGSRTYYADSVKGRFTISRDNAKNTVYLQMNSLKPEDTAVYDCAARVRRPLYSAYDSWGQGTQVTVSS | low polyreactivity
3 | QVQLVESGGGLVQAGGSLRLSCAASGSIFLKYAMCLYRQAPGKERELVAAMSFSGGGTYYADSVKGRFTISRDNAKNTVYLQMNSLKPEDTAVYYCAADKIVYVRSNWYWGFDYWGQGTQVTVSS | low polyreactivity
4 | QVQLVESGGGLVQAGGSLRLSCAASGSIFLKYAMGWYRQAPGKERELVAAISSRGGSTYYADSVKGRFTISRDNAKNTVYLQMNSLKPEDTAVYYCAKVRQTYFGWYSTTRDYWGQGTQVTVSS | high polyreactivity
5 | QVQLVESGGGLVQAGGSLRLSCAASGSIFLLYAMGWYRQAPGKERELVAAMSRGGSTYADSVKGRFTISRDNAKNTVYLQMNSLKPEVTAVYYCAASDQYRWYVHRWEDPFYYWGQGTQVTVSS | low polyreactivity
6 | QVQLVESGGGLVQAGGSLRLSCAASGSIFLNYAMGWYRQAPGKERELVAAISYRVGRTYYADSVKGRFTISRDNAKNTVYLQMNSLKPVDTAVYYCAADSRSPGNDYWGQGTQVTVSS | high polyreactivity
7 | QVQLVESGGGLVQAGGSLRLSCAASGSIFLPYAMGWNRQAPGKERELVAAITWSGGRTYYADSVKGRFTISRDNAKNTVYLQMNSLKPEDTAVYYCAADDSEGFDYWGQGTQVTVSS | high polyreactivity
8 | QVQLVESGGGLVQAGGSLRLSCAASGSIFLRNAMGWYRQAPGKERELVAAITWDSGDTYYADSVQGRFTISRDNAKNTVYLQMNSLKPEDTAVYYCNTLGLSSDWGQGTQVTVSS | low polyreactivity
9 | QVQLVESGGGLVQAGGSLRLSCAASGSIFLRYAMGWSRQARGKERELVAAITSSGRTNYADPVKGRFTISRDNAKNTVYLQMNSLKPEDTAVYYCAAVSYRQGVYRRNRYYYWGQGTQVTVSS | high polyreactivity
10 | QVQLVESGGGLVQAGGSLRLSCAASGSIFLSNAMGWYRQSPGKERELVAAISSSGGSTYYADSVKGRFTISRDNAKNTVYLQMNSLKPEDTAVYYCAATGYGFRGRFDYWGQGTQVTVSS | low polyreactivity
11 | QVQLVESGGGLVQAGGSLRLSCAASGSIFLSYAMGSYREAPGKERELVATITAGGGSTNYADSVKGRFTISRDNAKNTVYLQMNSLKPEDTAVYYCAAKRLSWHGYGYWGQGTQVTVSS | low polyreactivity
12 | QVQLVESGGGLVQAGGSLRLSCAASGSIFLSYDMGWYRQAPGKERELVAAITQSGGSTYYADSVKGRFTISRDNAKNTVYLQINSLIPEDTAVYYCAADYGYLPQETYPTYGYYYWGQGTQVTVSS | low polyreactivity
13 | QVQLVESGGGLVQAGGSLRLSCAASGSIFLTNAMGRYRQAPGKERELVAAIRSGGSTSYADSVKGRLTISRDNAKNTVYLQMNSLKPEDTAVYDCNAESDSRNYKVHPSGIYEYWGQGTQVTVSS | low polyreactivity
14 | QVQLVESGGGLVQAGGSLRLSCAASGSIFLTYDMGWYRQAPGKERELVAAITGSGDSTYYADSVKGRFTISRDNAKNTVYLQMNSLKPEDTAVYYCNADGPSTPWVDYGYWGQGTQVTVSS | low polyreactivity
15 | QVQLVESGGGLVQAGGSLRLSCAASGSIFLVNAMGWYRQAPGKERELVASITWRGGRTYYADSVKGRFTISRDNAKNTVYLEMNSLKPEDTAVYYCAARNYRTGERLRYDYWGQGTQVTVSS | low polyreactivity
16 | QVQLVESGGGLVQAGGSLRLSCAASGSIFLVNAMGWYRQAPGKVRELVAAITYGGDSTYYADSVKGRFTISRDHAQNTVYLQMNSLKPEDTAVYYCAADAWVGWHDEYDYWGQGTQVTVSA | low polyreactivity
17 | QVQLVESGGGLVQAGGSLRLSCAASGSIFLVNARGWYRQAPAKERELVASITWRGGRTYYADSVKGRFTISRDNAKNTDYLQMNSLKPEDTAVYYCAARNYRTGERLRYDYWGQGTQVTVSS | low polyreactivity
18 | QVQLVESGGGLVQAGGSLRLSCAASGSIFLVYAMGWYRQAPGKERELVAASDWSDTDTYYADSVKGRFTISRDNAKNTFYLQMNSLKPEDTAVYYCAADHVGVDFEYWGQGTQVTVSS | low polyreactivity
19 | QVQLVESGGGLVQAGGSLRLSCAASGSIFLVYGMGWYRPAPGKERELVAAISRTGGRTYYADSVKGRFTISRDNSKNTVYLQMNSLKPEDTAVYYCAAAAQRPEGYYWGQGTQVTVSS | high polyreactivity
20 | QVQLVESGGGLVQAGGSLRLSCAASGSIFLVYGMGWYRQAPGKERELVAAITSSAGSTYYADSVKGRFTISRDNAKNTVYLQMNSLKPEDTAVYYCAARWAWSTYSYYYWGQGTQVTVSS | high polyreactivity
21 | QVQLVESGGGLVQAGGSLRLSCAASGSIFLWYDMGWYRQAPGKERECVASITRSGGSTYYADSVKGRFTISRDNAKNTVYLQMNSLKPEDTAVYYCAASGATGRYSVYYHGYTYDYWGQGTQVTVSS | low polyreactivity
22 | QVQLVESGGGLVQAGGSLRLSCAASGSIFLYNALGWYRQAPGKERELVAAIYKSGGSTYYADSVKGRFTISRDNEKNSVYLQMNSLKPEDTAVYYCAAGYGSRIRYGSEYDYWGQGTQVTVSS | low polyreactivity

Row | Sequence | polyreactivity (PSR sort gate)
23 | QVQLVESGGGLVQAGGSLRLSCAASGSIFLYNAMGWYIQAPGKERELVAAISKSGGSTYYADSVKGRFTISRDNAKNTVYLQMNSLKPEDTAVYYCAADFLPQSYNWYDYWGQGTEVTVSS | low polyreactivity
24 | QVQLVESGGGLVQAGGSLRLSCAASGSIFLYNAMGWYRPAPGKERELVAAISKSGGSTYYADSVKGRFTISRDNAKNTVYLQMNSLKPEDTAVYYCAAGYGRRIRYGSEYDYWGQGTQVTVSS | low polyreactivity
25 | QVQLVESGGGLVQAGGSLRLSCAASGSIFLYYAMGWYRQAPGKERELVAGINRVGSTNYADSVKGRFTISRDNAKNTVYLQMNSLKPEDTAVYYCNKRGTRSRRRGYWGQGTQVTVSS | low polyreactivity
26 | QVQLVESGGGLVQAGGSLRLSCAASGSIFLYYAMGWYRQAPGKERELVATIRGSGSSTYYADSVKGRFTISRDNAKNTVYLQMNSLKPEDTAVYYCAAKGYRWFRHGGYYFKFDYWGQGTQVTVSS | high polyreactivity
27 | QVQLVESGGGLVQAGGSLRLSCAASGSIFNAYVMGWYRQAPGKERELVAAISRSGGRTYYADSVKGRFTISRDNATNTVYLQMNCLKPEDTAVYYCAAGYRYNYWGQGSQVTVSS | high polyreactivity
28 | QVQLVESGGGLVQAGGSLRLSCAASGSIFNGYAMGWYRQAPGKERELVAAISWNGGRTYYADSVKGRFTISRDNAKNTVYLQMNSLKPEDTAVYYCNKVSGYDVDYWGQGTQVTVSS | high polyreactivity
29 | QVQLVESGGGLVQAGGSLRLSCAASGSIFNKNAMGWYRQAPGKERELVAAITSSGSSTYYADSVKGRFTISRDNAKNTVYLQMNSLKPEDTAVYYCNAQYGIRPRAGRTRQKYDYWGQGTQVTVSS | high polyreactivity
30 | QVQLVESGGGLVQAGGSLRLSCAASGSIFNKNTMGWYRQAPGKERELVAAISGRTGITTYADSVKGRFTISRDNAKNTVYLQMNSLKPEDTAVYYCNAANRWRGSYDYWGQGTQVTVSS | high polyreactivity
31 | QVQLVESGGGLVQAGGSLRLSCAASGSIFNLNAMGWYRQAPGKERELVASISSDGSTYYADSVKGRFTISRDNAKNTVYLQMNSLKPEDTAVYYCNADSQWAFKQLSFDYWGQGTQVTVSS | low polyreactivity
32 | QVQLVESGGGLVQAGGSLRLSCAASGSIFNPYDMGWYRQAPGKERELVATISGGGGSTYYADSVKGRFTISRDNAKNTVYLQMNSLKPEDTAVYYCNKTDFNTNDLKFDYWGQGTQVTVSS | low polyreactivity
33 | QVQLVESGGGLVQAGGSLRLSCAASGSIFNRYAMGWYRQEPGKERELVAAISRSGGRTYYADSVKGRFTISRDNAKNTVYLQMNSLKPEDTAVYYCAAQSYLHYGYWGQGTQVTVSS | high polyreactivity
34 | QVQLVESGGGLVQAGGSLRLSCAASGSIFNRYARGWYRQAPGKERELVAAISSTGSTYYADSVKGRFTISRDNAKNTVYLQMNSLKPEDTAVYYCNADATHDWLRVDTYEYWGQGTQVTVSS | low polyreactivity
35 | QVQLVESGGGLVQAGGSLRLSCAASGSIFNRYTMGWYRQAPGKEREFVAAIRNSGSRTYYADSVKRRFTISRDNAKNTVYLQMNSLKPEDTAVYYCAADGPLISSESYYWGQGTQVTVSS | low polyreactivity
36 | QVQLVESGGGLVQAGGSLRLSCAASGSIFNSNAMGWYRPAPGKEREFVATITQTGSSTYYADSVKGRFTISRDNAKNTVYLQMNSLKPEETAVYYCAVDWILYEYEDDFWYRYDYWGQGTQVTVSS | low polyreactivity
37 | QVQLVESGGGLVQAGGSLRLSCAASGSIFNSNGMGWYRQAPGKERELVAAITGGGSTNYADSVKGRFTISRDYAKNTVYLQMNSLKPEDTAVYYCAKRSYRTHTYDYWGQGTQVTVSS | low polyreactivity
38 | QVQLVESGGGLVQAGGSLRLSCAASGSIFNSYAMGWYRQAPGKERELVAAISSGGGRTYYADSVKGRFTISRDNAKNTVYLQMNSLKPEDTAVYYCNARAVYRFDYWGQGTQVTVSS | high polyreactivity
39 | QVQLVESGGGLVQAGGSLRLSCAASGSIFNTYAMGWYRQAPGKERELVAAISRSGDSTYYADSVKGRFTISRDNAKNTVYLQMNSLKPEDTAVYYCATGRTDHGYYYWGQGTQVTVSS | high polyreactivity
40 | QVQLVESGGGLVQAGGSLRLSCAASGSIFNWYALGWYRQAPGKDRELVAAISKSGGRPYYADSVKGRFTISRDNAKNTVYLQKNSLKPEDTAVFSCNAPRFVGLNVYGYDYWGQGTQVTVSS | high polyreactivity
41 | QVQLVESGGGLVQAGGSLRLSCAASGSIFNYNMGWYRQAPGKERELVAAVSTNYADSVKGRFTISRDNAKNTVYLQMNSLKPEDTAVYYCGVTPEKSGDEYDYWGQGTQVTVSS | low polyreactivity
42 | QVQLVESGGGLVQAGGSLRLSCAASGSIFNYNMGWYRQAPGKERELVAAVSTNYADTVKGRFTISRDNAKNTVYLQMNSLKPEDTAVYYCGVTPEKSGDEYDYGGQGTQVTVSS | low polyreactivity
43 | QVQLVESGGGLVQAGGSLRLSCAASGSIFNYSAMGWYRQAPGKERELVAAITTSGGNTYYADSVQGRFTISRDNAKNTVYLQMNSLKPEDSAVYYCARTVSRYGTGNMDYWGQGTKVTVSS | low polyreactivity
